We go through five molecules from patent publication US6645762B2, “Synthases” (The Salk Institute for Biological Studies, priority 1998, dated 2003).

Format in all cases: biochemical
Data set [1] is described as follows: Diterpene synthase activity assay with radiolabelled GGPP (solvent extraction, scintillation counting, Ag-TLC). As to conditions: for hexane-extractable products formed from GGPP, analyzed by Ag-TLC: overnight incubation at room temperature, FIG. 3. The protocol: (§1) Synthase activity assays were carried out based on the assay described in Vogeli and Chappell, Plant Physiol. 94:1860 (1990) and Vogeli, et al., Plant Physiol. 93:182 (1990). In general, radio-labeled (^3H or ^14C) substrate was incubated with enzyme at room temperature in a buffered magnesium salt solution (200 mM Tris, pH 8, 50 mM Mg chloride, 1 mM DTT, unless otherwise noted); hydrocarbon products were then selectively extracted into an organic solvent such as hexane. The hexane extract generally was treated with silica gel to remove prenyl alcohols and other oxygenated compounds generated by non-enzymatic hydrolysis of substrate, which partition inefficiently into hexane. Hydrocarbon products present in the hexane phase were quantitated by scintillation counting.
A subsequent extraction with a more polar organic solvent such as ethyl acetate was sometimes carried out. Oxygenated compounds more efficiently partition into ethyl acetate-type solvents. Compounds present in the ethyl acetate phase were also quantitated by scintillation counting.
(§2) Substrate concentrations typically ranged from 0.1 nanomolar to 100 micromolar. In some assays, the substrate was not radiolabeled. Reactions generally were carried out in triplicate for each substrate concentration. Protein concentration was determined by the Bradford method. For determination of steady-state kinetic parameters, enzyme concentrations were chosen such that generation of products over time was linear throughout the course of the reaction.
(§3) Diterpene synthase assays typically were carried out using ^3H geranylgeranyl diphosphate (GGPP) and enzyme in 250 mM Tris, 10 mM Mg chloride, 1 mM DTT, pH 8.0. Sesquiterpene synthase assays typically were carried out using ^14C or ^3H FPP and enzyme in 100 mM Tris, 30 mM Mg chloride, 1 mM DTT, pH 8.0. Monoterpene synthase assays typically were carried out using ^3H GPP and enzyme. As a control for nonspecific binding of GPP by protein, identical reactions were set up which contained BSA, rather than enzyme.
(§4) Terpenoid hydrocarbon products are not readily separated by thin layer chromatography on normal or reverse-phase plates; however, some can be separated by argentation TLC (Ag-TLC), in which silica plates are first treated with silver nitrate. Ag-TLC described here generally followed the procedure described by Back et al., Arch. Biochem. Biophys. 315:527 (1994). A silica TLC plate was dipped in 15% silver nitrate (aqueous), then dried for 3-5 hours at 110° C. After spotting of tritiated enzymatic products (solvent extract), the plate was developed in benzene:hexane, ethyl acetate (50:50:1, by volume), sprayed with En^3Hance (NEN) fluorography spray, placed on film, and exposed for several days to several weeks. Long exposure times were generally necessary, as silver-nitrate treatment of the TLC plate appeared to cause quenching of the fluorography reagents fluorescence. Alternatively, ^14C labelled products were detected after one to two days without the use of fluorography spray.
The TEAS W273S enzyme and radiolabelled GGPP were incubated as described above and hydrocarbon products were extracted with hexane. Oxygenated products were then extracted with ethyl acetate.
The mutant TEAS C440W1W273S protein contains a tryptophan residue at position 440 and a serine residue at position 273. Assays with GGPP were carried out using 0.5 micromolar ^3H GGPP, various concentrations of unlabelled GGPP (Echelon), and enzyme. Reactions were incubated for 60 minutes at room temperature. […] Hexane-extractable products of GGPP turnover by the double mutant were analyzed by Ag-TLC. The products included two species (Rf=0.11 and 0.28) that were distinct from the hydrolysis product geranyl geraniol (Rf=0.0).To verify that products generated by TEAS C440W/W273S from GGPP were not the hydrolysis product, geranylgeraniol, a sample was analyzed by Ag-TLC. […]

Data set [2] in a line: Sesquiterpene synthase activity assay with radiolabelled FPP (Ag-TLC and GC/MS product analysis). As to conditions: for products of FPP turnover, analyzed by Ag-TLC: radiolabelled FPP, FIG. 4. The protocol: as §1, §2, §3, §4
Products of FPP turnover by the purified TEAS W273S mutant were analyzed by argentation thin-layer chromatography (Ag-TLC).
Reactions with FPP as substrate were carded out with ^14C FPP (9 μm) and enzyme (160 μm) in reaction buffer (20 μl). After incubating for 30 minutes at room temperature, products made by TEAS C440W/W273S were analyzed by Ag-TLC. […] The new product was distinct from both 5-epi-aristolochene and vetispiradiene. Several other products were also formed, many of which migrated slowly upon argentation TLC.
Reactions with radiolabeled FPP and TEAS Y520F enzyme were carried out essentially as described above. Reaction products were analysed by Ag-TLC and by GC/MS.

Data set [3] in a line: Alkylation of enzyme by radiolabeled FPP. As to conditions: dependent upon the presence of MgCl2. How it is done: Reactions to determine the products made by TEAS W273E using FPP as substrate were carried out essentially as described above, using radioiabeled FPP. […] The alkylation was dependent upon the presence of MgCl2 in the reaction mixture. In control experiments, boiled W273E-TEAS, as well as wild-type TEAS and BSA, were not alkylated.

B1: TEAS W273S: TEAS mutant with serine at position 273 (protein, UniProt Q40577 1-548, looked up, variant W273S)
5-epi-aristolochene synthase: MASAAVANYEEEIVRPVADFSPSLWGDQFLSFSIKNQVAEKYAKEIEALKEQTRNMLLATGMKLADTLNLIDTIERLGISYHFEKEIDDILDQIYNQNSNCNDLCTSALQFRLLRQHGFNISPEIFSKFQDENGKFKESLASDVLGLLNLYEASHVRTHADDILEDALAFSTIHLESAAPHLKSPLREQVTHALEQCLHKGVPRVETRFFISSIYDKEQSKNNVLLRFAKLDFNLLQMLHKQELAQVSRWWKDLDFVTTLPYARDRVVECYFSALGVYFEPQYSQARVMLVKTISMISIVDDTFDAYGTVKELEAYTDAIQRWDINEIDRLPDYMKISYKAILDLYKDYEKELSSAGRSHIVCHAIERMKEVVRNYNVESTWFIEGYTPPVSEYLSNALATTTYYYLATTSYLGMKSATEQDFEWLSKNPKILEASVIICRVIDDTATYEVEKSRGQIATGIECCMRDYGISTKEAMAKFQNMAETAWKDINEGLLRPTPVSTEFLTPILNLARIVEVTYIHNLDGYTHPEKVLKPHIINLLVDSIKI
With B1, the “counts in hexane and ethyl acetate extracts after incubation with radiolabelled GGPP” value in data set [1] (hydrocarbon products extracted with hexane, oxygenated products with ethyl acetate, compared with buffer alone) was “counts that were significantly higher for both the hexane and ethyl acetate extracts”. For the same molecule, the “hexane-extractable products formed from GGPP, analyzed by Ag-TLC” value (“hexane-extractable products formed” for short) in data set [1] is recorded as “distinct from the products made by acid-catalyzed loss of diphosphates from GGPP”. Besides, in data set [2], the “products of FPP turnover, hexane extract analyzed by GC/MS” value (shortened to “products of FPP turnover … by GC/MS”) is “at least four terpene hydrocarbons”; the “products of FPP turnover, analyzed by Ag-TLC” value was “distinct from both 5-epi-aristolochene (Rf=0.78) and vetispiradiene (Rf=0.63)”.

B2: TEAS C440W: TEAS mutant with tryptophan at position 440 (protein, UniProt Q40577 1-548, looked up, variant C440W)
5-epi-aristolochene synthase: MASAAVANYEEEIVRPVADFSPSLWGDQFLSFSIKNQVAEKYAKEIEALKEQTRNMLLATGMKLADTLNLIDTIERLGISYHFEKEIDDILDQIYNQNSNCNDLCTSALQFRLLRQHGFNISPEIFSKFQDENGKFKESLASDVLGLLNLYEASHVRTHADDILEDALAFSTIHLESAAPHLKSPLREQVTHALEQCLHKGVPRVETRFFISSIYDKEQSKNNVLLRFAKLDFNLLQMLHKQELAQVSRWWKDLDFVTTLPYARDRVVECYFWALGVYFEPQYSQARVMLVKTISMISIVDDTFDAYGTVKELEAYTDAIQRWDINEIDRLPDYMKISYKAILDLYKDYEKELSSAGRSHIVCHAIERMKEVVRNYNVESTWFIEGYTPPVSEYLSNALATTTYYYLATTSYLGMKSATEQDFEWLSKNPKILEASVIIWRVIDDTATYEVEKSRGQIATGIECCMRDYGISTKEAMAKFQNMAETAWKDINEGLLRPTPVSTEFLTPILNLARIVEVTYIHNLDGYTHPEKVLKPHIINLLVDSIKI
On to B2, for which the “hexane-extractable products formed” value in data set [1] is “no hexane-extractable products were detectable”. In data set [2], the “products of FPP turnover … by GC/MS” value was “single major sesquiterpene hydrocarbon product as well as a small number of minor hydroxylated products” and the “products of FPP turnover, analyzed by Ag-TLC” value is on record as “at least one major terpenoid hydrocarbon product”.

B3: TEAS C440W/W273S: TEAS double mutant, tryptophan at position 440 and serine at position 273, SEQ ID NO:10 (protein)
chain: MASAAVANYEEEIVRPVADFSPSLWGDQFLSFSIDNQVAEKYAQEIEALKEQTRSMLLATGRKLADTLNLIDIIERLGISYHFEKEIDEILDQIYNQNSNCNDLCTSALQFRLLRQHGFNISPEIFSKFQDENGKFKESLASDVLGLLNLYEASHVRTHADDILEDALAFSTIHLESAAPHLKSPLREQVTHALEQCLHKGVPRVETRFFISSIYDKEQSKNNVLLRFAKLDFNLLQMLHKQELAQVSRWWKDLDFVTTLPYARDRVVECYFSALGVYFEPQYSQARVMLVKTISMISIVDDTFDAYGTVKELEAYTDAIQRWDINEIDRLPDYMKISYKAILDLYKDYEKELSSAGRSHIVCHAIERMKEVVRNYNVESTWFIEGYMPPVSEYLSNALATTTYYYLATTSYLGMKSATEQDFEWLSKNPKILEASVIIWRVIDDTATYEVEKSRGQIATGIECCMRDYGISTKEAMAKFQNMAETAWKDINEGLLRPTPVSTEFLTPILNLARIVEVTYIHNLDGYTHPEKVLKPHIINLLVDSIKI
Take B3: the “conversion of GGPP to hexane-extractable products” value in data set [1] (0.5 micromolar 3H GGPP plus unlabelled GGPP, 60 minutes at room temperature) is “converted GGPP to hexane-extractable products”. The “hexane-extractable products formed” value in data set [1] is “different from those generated by non-enzymatic degradation of geranylgeranyl diphosphate”.

B4: TEAS Y520F: TEAS protein in which Tyr520 is changed to Phe, SEQ ID NO:6 (protein)
chain: MASAAVANYEEEIVRPVADFSPSLWGDQFLSFSIDNQVAEKYAQEIEALKEQTRSMLLATGRKLADTLNLIDIIERLGISYHFEKEIDEILDQIYNQNSNCNDLCTSALQFRLLRQHGFNISPEIFSKFQDENGKFKESLASDVLGLLNLYEASHVRTHADDILEDALAFSTIHLESAAPHLKSPLREQVTHALEQCLHKGVPRVETRFFISSIYDKEQSKNNVLLRFAKLDFNLLQMLHKQELAQVSRWWKDLDFVTTLPYARDRVVECYFWALGVYFEPQYSQARVMLVKTISMISIVDDTFDAYGTVKELEAYTDAIQRWDINEIDRLPDYMKISYKAILDLYKDYEKELSSAGRSHIVCHAIERMKEVVRNYNVESTWFIEGYMPPVSEYLSNALATTTYYYLATTSYLGMKSATEQDFEWLSKNPKILEASVIICRVIDDTATYEVEKSRGQIATGIECCMRDYGISTKEAMAKFQNMAETAWKDINEGLLRPTPVSTEFLTPILNLARIVEVTFIHNLDGYTHPEKVLKPHIINLLVDSIKI
B4: the “products of FPP turnover … by GC/MS” value in data set [2] is “same GC retention time as authentic germacrene A and the same mass spectrum as authentic germacrene A”.

B5: boiled W273E-TEAS: boiled W273E-TEAS used as control in alkylation experiment (protein, UniProt Q40577 1-548, looked up, variant W273E)
5-epi-aristolochene synthase: MASAAVANYEEEIVRPVADFSPSLWGDQFLSFSIKNQVAEKYAKEIEALKEQTRNMLLATGMKLADTLNLIDTIERLGISYHFEKEIDDILDQIYNQNSNCNDLCTSALQFRLLRQHGFNISPEIFSKFQDENGKFKESLASDVLGLLNLYEASHVRTHADDILEDALAFSTIHLESAAPHLKSPLREQVTHALEQCLHKGVPRVETRFFISSIYDKEQSKNNVLLRFAKLDFNLLQMLHKQELAQVSRWWKDLDFVTTLPYARDRVVECYFEALGVYFEPQYSQARVMLVKTISMISIVDDTFDAYGTVKELEAYTDAIQRWDINEIDRLPDYMKISYKAILDLYKDYEKELSSAGRSHIVCHAIERMKEVVRNYNVESTWFIEGYTPPVSEYLSNALATTTYYYLATTSYLGMKSATEQDFEWLSKNPKILEASVIICRVIDDTATYEVEKSRGQIATGIECCMRDYGISTKEAMAKFQNMAETAWKDINEGLLRPTPVSTEFLTPILNLARIVEVTYIHNLDGYTHPEKVLKPHIINLLVDSIKI
modifications: heat-denatured (boiled)
notes: boiled W273E-TEAS used as control in alkylation experiment
Turning to B5, the “alkylation of the enzyme by FPP” value in data set [3] is “not alkylated”.
